Assay results as given in the supplement of paper PMC12764529.
± gives the half width of the 95% confidence interval.

Assays:
[1] = folding stability dG unfold from trypsin proteolysis; higher = more stable
Procedure, shortened: (§1)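 Unfolding free energy was derived, per protease or combined, against a sequence-predicted unfolded-state K50 and a shared folded-state K50, starting from K50 inferred by Bayesian fitting of sequencing counts. Digestion with trypsin and chymotrypsin was carried out on designed mini-proteins under 80 residues without cysteine in a PA-tagged cDNA display construct. Only designs with AlphaFold2 dimer inter-PAE above 15 were kept.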

[2] = folding stability dG unfold from chymotrypsin proteolysis; higher = more stable
Procedure, shortened: as §1

[3] = folding stability dG unfold (combined trypsin and chymotrypsin); higher = more stable
Procedure, shortened: as §1

Row | Sequence | folding stability dG unfold [1] | folding stability dG unfold [2] | folding stability dG unfold [3]
1 | SAGGSAGGGGMTVTITVPVPSPTATYTVSFPSSSATASFTAEPGGPLTITVNAPSVTSITVTVSSAGGSAGG [r6_808_JUSTAS] | 3.03 ± 0.1 kcal/mol | 3.98 ± 0.053 kcal/mol | 3.63 ± 0.11 kcal/mol
2 | PKIEITRVEYHPNEGYYRVTVKLPGKDVSIYMGPENGMMQVYFPGNGREREFPFDSMDDAVDRAKELLKERS [r1_177_TrROS] | 1.33 ± 0.12 kcal/mol | 1.55 ± 0.11 kcal/mol | 1.23 ± 0.28 kcal/mol
3 | SAGGSMKPSKVTEVTHPDGTRFTVTEYPEVPLLTLTIERPETGTTTTVKTKSREEAEKVLAELVASSAGGSA [r2_70_JUSTAS] | 0.696 ± 0.068 kcal/mol | 0.306 ± 0.16 kcal/mol | 0.596 ± 0.11 kcal/mol
4 | SAGGSAGGSAGGMTVVERTIEVEPDAKVIPLNLPGSNISATVLEYDPETGTLKVKIYVKESAGGSAGGSAGG [r17_198_JUSTAS] | 0.485 ± 0.05 kcal/mol | 1.06 ± 0.12 kcal/mol | 0.945 ± 0.11 kcal/mol
5 | SKGTFRAVLPLETLKELIERFKSKGYRIEVKPLSIKPFEVPGIREDGTPELFPVVEVEAEIEIYPPEDPASA [r9_991_TrMRF] | 1.671 ± 0.015 kcal/mol | 1.9 ± 0.063 kcal/mol | 1.82 ± 0.066 kcal/mol
6 | SAGGSAGGSAGGSPVAAKTLSKSTSLLPNGKVKTSTTTAFPTGETTTTTTTTPLSLTLTSAGGSAGGSAGGS [r10_1206_JUSTAS] | -0.654 ± 0.27 kcal/mol | 0.158 ± 0.17 kcal/mol | -0.0493 ± 0.12 kcal/mol
7 | SAGGIEELAKALGIEEVEVTSIDPETREVTVRVRVRGPDGEERTLTVKIRLEPAPPPVRTFSEEELKSSAGG [r13_608_TrROS_Hall] | 1.78 ± 0.029 kcal/mol | 1.06 ± 0.04 kcal/mol | 1.45 ± 0.087 kcal/mol
8 | SAGPSLEVEVERLPGPYVRITARYSRDVPVEVLVEELRAAAPVEVRVEEDPERDFVTVVAVLPLAPDAGSAG [r5_742_TrMRF] | 1.28 ± 0.031 kcal/mol | 1.46 ± 0.069 kcal/mol | 1.46 ± 0.08 kcal/mol
9 | SAKKTIVVPVEKLKELLDALKEAGYEVKVEYNKENPVVTVTITVKDKNGKELKIELVVDKKTGLVTIKLSAG [r14_169_TrROS_Hall] | 1.97 ± 0.077 kcal/mol | 2.45 ± 0.051 kcal/mol | 2.26 ± 0.13 kcal/mol
10 | SAGGKKKYRIKITYKDEGKLYEVPEDVKATVDPNNVVYIEVDSKEAVDELVKAIAPKDGLEVEVEPGSAGGS [r8_131_TrMRF] | 0.52 ± 0.044 kcal/mol | 1.18 ± 0.087 kcal/mol | 0.916 ± 0.093 kcal/mol
11 | SAGGSAGGSAGMKTVTETEFDPAAPVVTTTTSLVTLPPDGKPSITSTTTTTTAVAAPAAAASAGGSAGGSAG [r3_138_JUSTAS] | -0.0492 ± 0.05 kcal/mol | 1.41 ± 0.038 kcal/mol | 1.03 ± 0.062 kcal/mol
12 | SAGGSAGGGMSMEELKTVDYPLVVTVPLPDGSTVTVSAKVPAEDLDKAIPEVEERAKALAEEGASAGGSAGG [r6_903_JUSTAS] | -0.194 ± 0.053 kcal/mol | 1.26 ± 0.038 kcal/mol | 0.843 ± 0.059 kcal/mol
13 | SVIKLPIWYPNSPAEQAEEMVQSLARKFMDKYGLKIDVEVETRRDPDGKPRWVRIEATIQYRDEDGKPIFSA [r9_21_TrROS] | 1.81 ± 0.084 kcal/mol | 2 ± 0.073 kcal/mol | 2.07 ± 0.26 kcal/mol
14 | MKETVTVDITVVVEDENGKKHLVRVKVTVEKLPDGTYRVTIEVENLETGKTETIEIEVKGAEFKPGDVIEIS [r1_14_TrROS_Hall] | 3.21 ± 0.15 kcal/mol | 2.56 ± 0.15 kcal/mol | 2.87 ± 0.12 kcal/mol
15 | SAGGSAGGSAGGPENDWREVDIKIKFENPEGKPIFDIKIYYMPDGDIMIYFPNGNWIWISAGGSAGGSAGGS [r10_972_TrROS] | 2.42 ± 0.14 kcal/mol | 4.14 ± 0.065 kcal/mol | 3.75 ± 0.17 kcal/mol
16 | SAGGFGIKIDEFDPDGEFRISIYDPDTWQPIAEFRIKIKPVPPPPPVEKRPYKDDDGEPKTVTHPDDQSAGG [r13_9_TrROS] | 0.542 ± 0.12 kcal/mol | 1.73 ± 0.19 kcal/mol | 1.43 ± 0.2 kcal/mol
17 | SAGGSMVVTVSTDSTSEPTTVITITIPPELGNLTDEEKKAIAEEIAKKYPNTKFTFTPTTITITRKSAGGSA [r2_256_JUSTAS] | 1.77 ± 0.047 kcal/mol | 2.81 ± 0.054 kcal/mol | 2.37 ± 0.23 kcal/mol
18 | SAGGSAPWVTLPIIIMFDSPEQAVEEVKPIFQELFGIKDVNVEEEPMPNGMVFVPIEITIPAENMKSAGGSA [r15_173_TrROS] | 0.547 ± 0.061 kcal/mol | 1.38 ± 0.07 kcal/mol | 1.09 ± 0.092 kcal/mol
19 | SGEFKPIATIDAKDGKPEAIIDSVKELLPDSGPVLVVLDLPDGPPKVNVIDPSTGKVREFVPGGNITIVPSA [r9_853_TrMRF] | 0.355 ± 0.037 kcal/mol | 1.39 ± 0.021 kcal/mol | 1.03 ± 0.056 kcal/mol
20 | SAGGSAGGSAGGGMTITTTSSVSESDGGLTLSTTTTAFDPVTGTWTPLTTTTTTLPPTTSAGGSAGGSAGGS [r10_51_JUSTAS] | 1.65 ± 0.065 kcal/mol | 0.778 ± 0.041 kcal/mol | 1.24 ± 0.053 kcal/mol
21 | SAGGMKIKIEIEPEGDVVKVKIEIELPEGKVEVVEEEEAEVFEDGKIKVRFRVRRKDGPEFEFELDISAGGS [r8_449_TrMRF] | 3.49 ± 0.17 kcal/mol | 4.41 ± 0.2 kcal/mol | 4.17 ± 0.18 kcal/mol

Row | Sequence | folding stability dG unfold [1] | folding stability dG unfold [2] | folding stability dG unfold [3]
22 | SAGGSEIRVEYDPSTGELRVLIVLPDGSVILKTVRVEPIDPGIAPDGSPIGAAVSISVEIVPPGELSAGGSA [r2_195_TrMRF] | 3.23 ± 0.1 kcal/mol | 3.5 ± 0.037 kcal/mol | 3.39 ± 0.087 kcal/mol
23 | SAGGSAGGSAGGSMPENLVTITTETTVVKSPLANPVNESPVWEVEVISSPVTVVPPSLLSAGGSAGGSAGGS [r4_417_JUSTAS] | 1.25 ± 0.087 kcal/mol | 0.0877 ± 0.12 kcal/mol | 0.812 ± 0.1 kcal/mol
24 | SAGGSMVKLKVTSVSREGNYLTVTAELGNLIVEIRFDEGTDRFEVKVSEKPLVLGEEEIEELAKASSAGGSA [r2_482_TrMRF] | 1.52 ± 0.064 kcal/mol | 2.38 ± 0.043 kcal/mol | 2.08 ± 0.072 kcal/mol
25 | SAGGSAGGSAGGLVLTSTSFTSSNTMVVTTTTLTTNADGSLSTTSTTTTTPVPPPKPGLPSAGGSAGGSAGG [r11_728_JUSTAS] | 0.161 ± 0.042 kcal/mol | 0.509 ± 0.092 kcal/mol | 0.443 ± 0.077 kcal/mol
26 | SAGGPTLKVKIYLPEEGKVIEFTFEAKKDEAEKIAKELEKLFPGYKLEGVKIFETPDSIELLAVASPESAGG [r13_196_TrMRF] | 3.26 ± 0.11 kcal/mol | 3.65 ± 0.075 kcal/mol | 3.52 ± 0.069 kcal/mol
27 | SAGGSAGGSAGPNIYVSIKWKHNNGPVTHQIPIPPNDPPEILDEMSKQPGFKVTDIEVMPSAGGSAGGSAGG [r11_692_TrROS] | -0.836 ± 0.35 kcal/mol | -0.0146 ± 0.3 kcal/mol | -0.213 ± 0.25 kcal/mol
28 | SAGGGFDPSKLKKEKTLTLTLPGNSETFTIELYLPEDGESTVVFSYNDKNYELTITKDSITLKPVSSSAGGS [r16_711_JUSTAS] | 2.38 ± 0.13 kcal/mol | 3.01 ± 0.045 kcal/mol | 2.79 ± 0.2 kcal/mol
29 | SAGGSAGGSAKIIVNEDGYLIKITNKNGKEITIEMSEDELKELLKKLGIKKAEIVPLPKEKSAGGSAGGSAG [r3_141_TrROS_Hall] | 0.382 ± 0.075 kcal/mol | 2.34 ± 0.093 kcal/mol | 1.72 ± 0.2 kcal/mol
30 | SMKITIVENEDGSLKIKVYFKDTGKVVEKTFEKGETIEEQVKKLAEELEKELGLEVVDVEIVKLPPPEKPSA [r9_1205_TrROS_Hall] | 2.63 ± 0.23 kcal/mol | 3.74 ± 0.096 kcal/mol | 3.57 ± 0.12 kcal/mol
31 | SAGGSAGGSMPTSSSSSLSSEAEVEALIEELKKKGAKEFTVDPGPGALTLTITYDDSTLTISSSAGGSAGGS [r12_846_JUSTAS] | 0.838 ± 0.033 kcal/mol | 1.38 ± 0.057 kcal/mol | 1.12 ± 0.11 kcal/mol
32 | SAMTKEEAKENGHIYIMVKIEVTWPNGGKREFPIFFPFPSLDEAKEQIRSFFRRMNFKVKIDDISIFPVSAG [r14_854_TrROS] | 2.98 ± 0.048 kcal/mol | 3.745 ± 0.027 kcal/mol | 3.53 ± 0.049 kcal/mol
33 | SAGMIKIEETDGKLKVTITLKADDPEEITVEMIKEELEKLGLEVAEIKITPEPNEDGQYTVTAEIVVDVSAG [r5_922_TrMRF] | 2.99 ± 0.39 kcal/mol | 3.06 ± 0.16 kcal/mol | 3.08 ± 0.23 kcal/mol
34 | SAGGSARYYFIVIEIWQPGKPVKFIIVVPKEDPKKFESEINEMFPGYNIDIKVIPFPSPEEAEDLFSAGGSA [r15_889_TrROS] | 2.26 ± 0.1 kcal/mol | 2.97 ± 0.088 kcal/mol | 2.74 ± 0.17 kcal/mol
35 | SAGGSAGGSAGGGSMTLELPLPEWSEEEIEALAEELKKKGLKVKEIERDPESDVVRITVESAGGSAGGSAGG [r7_906_JUSTAS] | 1.79 ± 0.1 kcal/mol | 2.28 ± 0.078 kcal/mol | 2.15 ± 0.11 kcal/mol
36 | SAGGSAGGSAIKKTPNGKYLLKVTFTETYKDKKTGKTYKKTYTKTYVFDKKTNKWKSAEELSAGGSAGGSAG [r3_394_TrROS_Hall] | 2.41 ± 0.17 kcal/mol | 3.12 ± 0.12 kcal/mol | 2.94 ± 0.33 kcal/mol
37 | SAGNKIEIEPVNYEPMPNGYYRVTARVTIENPNNKKPWDIDVEAYYPMDPNGQPMNVDEIAKEAIKKIFSAG [r5_604_TrROS] | 0.624 ± 0.098 kcal/mol | 1.36 ± 0.11 kcal/mol | 1.07 ± 0.24 kcal/mol
38 | SWWYMVKIEIENGGKPIKIPVPVNDLDDFIDNAREAIPPDLADQLPPNMEVEVEVMPIPRVDPENGKPRPSA [r9_111_TrROS] | 0.866 ± 0.054 kcal/mol | 1.42 ± 0.15 kcal/mol | 1.1 ± 0.15 kcal/mol
39 | SAGGSAGGSFRIKEIEYKPPKGMIEVEIEFPNGRPIKIHINPDEGWDPIYFGGKPIFPIRIEPSAGGSAGGS [r12_789_TrROS] | -0.206 ± 0.1 kcal/mol | 0.859 ± 0.13 kcal/mol | 0.534 ± 0.11 kcal/mol
40 | SAGGSAGGSAGGPYVVKVKLKDGSVVELPVEEDHIPTIEDLVKAGIPPELIESVEIEPESAGGSAGGSAGGS [r10_565_TrMRF] | 2.57 ± 0.12 kcal/mol | 3.09 ± 0.093 kcal/mol | 2.91 ± 0.1 kcal/mol
41 | SAGGITIELRNPNGEPVEVHLKRDPDGTLELSVHMRGPEGRHYMVTMTIKVKNNGIEIDKFDNWYPLPSAGG [r13_451_TrROS] | 3.11 ± 0.092 kcal/mol | 4.16 ± 0.084 kcal/mol | 3.79 ± 0.11 kcal/mol
42 | SAGGSAGGSRKTILFRFPDGMMIKISLEENPNGNKRVRVTVYNPDNGKKRRMPADELPPNAKISAGGSAGGS [r12_797_TrROS] | 1.14 ± 0.079 kcal/mol | 3.13 ± 0.09 kcal/mol | 2.64 ± 0.15 kcal/mol
